25 molecules from patent US20220041674A1 (published 2022) can be followed below.

Non-standard residues stand in square brackets, D forms with d. Nal = naphthylalanine

The term IC50 denotes the midpoint of a concentration-inhibition curve. Lower therefore signals higher potency.

Assay [1] deals with human chemokine receptor 4 (CXCR4) (human) (UniProt P61073). Nature of the assay: competitive radioligand binding on Jurkat cells, [125I]FC131 0.1 nM, 2 h RT.
Assay [2] shares this target. Nature of the assay: cell-based or functional assay.
The target is the same in assay [3]. Put plainly: competitive radioligand binding on Jurkat cells (400.000 cells/sample), [125I]FC-131.
In assay [4] the target is T1, murine chemokine receptor 4 (CXCR4) (murine, UniProt P70658 1-359).
T1 construct: whole, on cells; receptor present on whole cells; also called mCXCR4; mouse CXCR4
Nature of the assay: competitive radioligand binding on Eµ-Myc1080 mouse B-cell lymphoma cells, [125I]CPCR4.3.

Sequence of human chemokine receptor 4 (CXCR4) (human) (P61073 whole entry): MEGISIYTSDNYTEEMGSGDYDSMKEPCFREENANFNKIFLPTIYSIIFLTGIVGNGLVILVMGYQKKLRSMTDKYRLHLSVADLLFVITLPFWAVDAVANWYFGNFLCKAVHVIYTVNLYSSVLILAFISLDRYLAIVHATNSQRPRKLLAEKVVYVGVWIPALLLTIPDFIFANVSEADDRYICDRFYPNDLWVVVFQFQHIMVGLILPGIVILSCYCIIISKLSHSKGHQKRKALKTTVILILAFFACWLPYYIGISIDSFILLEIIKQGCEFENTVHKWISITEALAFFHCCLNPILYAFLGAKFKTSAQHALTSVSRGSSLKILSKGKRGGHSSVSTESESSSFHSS
T1 sequence (P70658 whole entry): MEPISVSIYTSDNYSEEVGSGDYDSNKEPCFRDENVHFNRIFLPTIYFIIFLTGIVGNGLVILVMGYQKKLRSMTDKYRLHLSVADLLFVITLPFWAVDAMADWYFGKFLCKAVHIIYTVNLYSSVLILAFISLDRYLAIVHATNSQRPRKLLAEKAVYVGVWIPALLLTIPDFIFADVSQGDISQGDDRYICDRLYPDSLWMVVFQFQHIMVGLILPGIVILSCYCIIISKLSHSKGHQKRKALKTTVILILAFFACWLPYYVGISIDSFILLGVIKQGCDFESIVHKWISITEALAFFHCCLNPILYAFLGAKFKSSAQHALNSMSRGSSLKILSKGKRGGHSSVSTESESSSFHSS

Consider “^natGa-pentixafor, natGa complex of cyclo(D-Tyr1-D-[NMe]Orn2(AMBS-DOTA)-Arg3-Nal4-Gly5) (peptide)”, for which the half-maximal inhibitory concentration (IC50) in assay [1] was 24.8 nM.
As for “^natLu-pentixafor, natLu complex of cyclo(D-Tyr1-D-[NMe]Orn2(AMBS-DOTA)-Arg3-Nal4-Gly5) (peptide)”, the concentration for half-maximal inhibition (IC50) in assay [1] worked out at 41 nM.
“^natLu-pentixather, natLu complex of cyclo(D-3-iodo-Tyr1-D-[NMe]Orn2(AMBS-DOTA)-Arg3-Nal4-Gly5) (peptide)” gave a specific internalized activity (hCXCR4+ Chem 1 cells, 37 °C, 1.0 nM peptide, 60 min) in assay [2] of 3.8%.
“cyclo[-yorn′(AMBF3(methyl(1H-1,2,3-triazol-4-yl)-rG-4-amino)benzoyl-)RNaIG] (F3b) (peptide)” gave an IC50 in assay [3] of 2.4 nM.
“cyclo[i-yorn′(AMBF3(methyl(1H-1,2,3-triazol-4-yl)4-amino)benzoyl-)RNaIG] (F1) (peptide)” had an IC50 in assay [3] of 134 nM.
Consider “cyclo[i-yorn′(AMBF3(methyl(1H-1,2,3-triazol-4-yl)-kG-4-amino)benzoyl-)RNaIG] (F4) (peptide)”, for which the half-maximal inhibitory concentration (IC50) in assay [3] worked out at 3.8 nM.
In assay [3], “cyclo[i-yorn′(AMBF3(methyl(1H-1,2,3-triazol-4-yl)-vG-4-amino)benzoyl-)RNaIG] (F2) (peptide)” had a half-inhibitory concentration (IC50) of 65.2 nM.
Consider “cyclo[i-yorn′([natBi]DOTA-kG-(4-amino)benzoyl-)RNaIG ([natBi]P3) (peptide)”, for which, in assay [3], the IC50 came to 38 nM.
With “cyclo[i-yorn′([natGa]DOTA-dapG-(4-amino)benzoyl-)RNaIG ([natGa]P2) (peptide)”, the IC50 in assay [3] and in assay [1] was 3.6 nM throughout.
For the molecule “cyclo[i-yorn′([natGa]DOTA-kG-(4-amino)benzoyl-)RNaIG ([natGa]P3) (peptide)”, the IC50 in assay [3] and in assay [1] was 2.4 nM in each case.
For “cyclo[i-yorn′([natLu]DOTA-d-(4-amino)benzoyl-)RNaIG ([natLu]P1) (peptide)”, the IC50 in assay [3] and in assay [1] was 106 nM throughout.
For the molecule “cyclo[i-yorn′([natLu]DOTA-kG-(4-amino)benzoyl-)RNaIG ([natLu]P3) (peptide)”, the half-inhibitory concentration (IC50) in assay [3] and in assay [1] was 3.6 nM each time.
Turning to “cyclo[i-yorn′([natLu]DOTA-ra-(4-amino)benzoyl-)RNaIG ([natLu]P5) (peptide)”, in assay [2], the specific internalized activity (hCXCR4+ Chem 1 cells, 37 °C, 1.0 nM peptide, 60 min) worked out at 36.7%.
Turning to “cyclo[i-yorn′([natY]DOTA-dapG-(4-amino)benzoyl-)RNaIG ([natY]P2) (peptide)”, the IC50 in assay [3] came out at 4.1 nM.
In assay [3], “cyclo[i-yorn′([natY]DOTA-kG-(4-amino)benzoyl-)RNaIG ([natY]P3) (peptide)” registered a 50% inhibitory concentration (IC50) of 2.4 nM.
For “cyclo[yorn′([natGa]DOTA-kG-(4-amino)benzoyl-)RNaIG ([natGa]P3b) (peptide)”, the half-maximal inhibitory concentration (IC50) in assay [3] and in assay [1] was 8.9 nM in each case.
As for “cyclo[yorn′([natGa]DOTA-rG-(4-amino)benzoyl-)RNaIG ([natGa]P4b) (peptide)”, the concentration for half-maximal inhibition (IC50) in assay [3] and in assay [1] was 9.7 nM in each case.
For “cyclo[yorn′([natGa]DOTA-ra-(4-amino)benzoyl-)RNaIG ([natGa]P5b) (peptide)”, the IC50 in assay [3] and in assay [1] was 0.4 nM throughout.
As to “cyclo[yorn′([natLu]DOTA-kG-(4-amino)benzoyl-)RNaIG ([natLu]P3b) (peptide)”, the half-maximal inhibitory concentration (IC50) in assay [3] and in assay [1] was 8 nM each time.
Take “cyclo[yorn′([natLu]DOTA-rG-(4-amino)benzoyl-)RNaIG ([natLu]P4b) (peptide)”: the half-maximal inhibitory concentration (IC50) in assay [3] and in assay [1] was 5.4 nM each time.
As for “cyclo[yorn′([natLu]DOTA-ra-(4-amino)benzoyl-)RNaIG ([natLu]P5b) (peptide)”, the specific internalized activity (hCXCR4+ Chem 1 cells, 37 °C, 1.0 nM peptide, 60 min) in assay [2] is 21.2%.
For the molecule “cyclo[yorn′([natY]DOTA-kG-(4-amino)benzoyl-)RNaIG ([natY]P3b) (peptide)”, in assay [3], the concentration for half-maximal inhibition (IC50) stood at 6.3 nM.
Consider “cyclo[yorn′([natY]DOTA-rG-(4-amino)benzoyl-)RNaIG ([natY]P4b) (peptide)”, for which the IC50 in assay [3] was 8.7 nM.
On the same count and under the same terms, next, “cyclo[yorn′([natY]DOTA-ra-(4-amino)benzoyl-)RNaIG ([natY]P5b) (peptide)”: 0.3 nM.

B1: FC131, c[yRRNaIG] (R2) (peptide)
peptide: cyclo([dY]RR[Nal]G)
notes: stands under the natLu column heads although it carries no chelator; also called cyclo(Gly-Nal-Arg-Arg-D-Tyr)
In assay [4], B1 gave an IC50 of 119 nM.
